Experiments:
cynomolgus CCR8 [1] = target: T1, cynomolgus CCR8 (cynomolgus, UniProt G7NYJ2 1-355); experiment: FACS, hybridoma supernatant on cynomolgus CCR8 cells
T1 construct: whole, on cells; also called HEK293-Cynomolgus CCR8; ExpiCHO-S cynomolgus CCR8
Protocol: (§1) Binding of hybridoma supernatant on CHO-K1-human CCR8 and ExpiCHO-S cynomolgus CCR8 cells. A total of 660 96-well plates were seeded and screened by FACS binding from the hybridoma derived from immunized animals.
(§2) To obtain antibodies cross-reactive to human and cynomolgus CCR8, hybridomas from mice immunized with human and cynomolgus CCR8 DNAs were screened by FACS. Briefly, 50 μL ExpiCHO-S cells transfected with human CCR8 or cynomolgus CCR8 (cell density: 2×10⁶ cells/mL, viability>90%) were incubated with equal volume hybridoma supernatant in 96 well plate (Corning) at 4° C. for 1 hour. […] Finally, the mixture was washed and resuspended with FACS buffer, and subjected to FACS analysis on BD FACS Celesta.

human CCR8 [2] = target: T2, human CCR8 (human, UniProt P51685 1-355); experiment: FACS on CHO-K1-human CCR8 cells
T2 construct: whole, on cells; In the β-arrestin assay CCR8 is fused to the ProLink (PK) tag; also called hCCR8; CHO-K1-human CCR8
Protocol: (§3) The binding affinities of purified antibodies were determined on human CCR8 and cynomolgus CCR8 over-expressing cells. Briefly, CFSE (Life technology, Cat #: C34554) labeled CHO-K1-human CCR8 cells mixed with CHO-K1 cells, CFSE labeled HEK293-human CCR8 cells mixed with H1EK293 cells, or CFSE labeled H1EK293-cynomolgus CCR8 cells mixed with HTEK293 cells were used in the assay. The mix ratio was 1:1. A total of 5×10⁴ mixed cells for each well were seeded in 96-well plate and washed by FACS buffer (DPBS containing 10% FBS) once. Cells were incubated by series diluted purified hybridoma antibodies for 1 hour at 4° C. Antibodies were prepared with 3-fold serial dilution ranging from 200 nM to 0.003 nM in FACS buffer. After primary antibody incubation, cells were washed by FACS buffer for three times. Then, cells were stained with secondary antibody (Alexa Flu647-conj gated rabbit anti-mouse IgG, Jackson ImmunoResearch, #315606046) at 1:600 dilution in FACS buffer and incubated for 0.5 hour at 4° C. […] FlowJo software was used for analysis. Data was plotted as the logarithm of antibody concentration versus mean fluorescence signals. EC₅₀ values were calculated in GraphPad Prism 8 (GraphPad Software) using a log(agonist) vs. response-Variable slope (4 parameters) curve fit. […] The EC₅₀s of the selected antibodies on human CCR8 are less than 5 nM except those of 262C2G7 and 234G9C12. The EC₅₀s of the selected antibodies on cynomolgus CCR8 are less than 1 nM except that of 348E2D11 (Table 8).
T2 sequence (P51685 whole entry, the tested form may be a part): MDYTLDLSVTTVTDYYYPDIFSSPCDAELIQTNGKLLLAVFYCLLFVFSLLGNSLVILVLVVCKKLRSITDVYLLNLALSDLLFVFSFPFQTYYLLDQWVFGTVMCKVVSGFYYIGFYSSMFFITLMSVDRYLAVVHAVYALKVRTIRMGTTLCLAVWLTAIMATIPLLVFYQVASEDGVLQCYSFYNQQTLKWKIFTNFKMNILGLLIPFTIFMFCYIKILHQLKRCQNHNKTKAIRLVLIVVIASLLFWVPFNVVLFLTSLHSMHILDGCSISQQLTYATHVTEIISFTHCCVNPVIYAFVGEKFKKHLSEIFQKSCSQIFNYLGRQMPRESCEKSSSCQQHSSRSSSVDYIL

human CCR8 [3] = target: T2, human CCR8; experiment: FACS competition, hybridoma supernatant with 4 nM AF647-human CCL1 on human CCR8 cells
human CCR8 [4] = target: T2, human CCR8; experiment: FACS on HEK293-human CCR8 cells
Protocol: as §3

human CCR8 [5] = target: T2, human CCR8; experiment: FACS, hybridoma supernatant on CHO-K1-human CCR8 cells
Protocol: as §1, §2

cynomolgus CCR8 [6] = target: T1, cynomolgus CCR8; experiment: FACS on HEK293-Cynomolgus CCR8 cells
Protocol: as §3

human CCR8 [7] = target: T3, human CCR8 (human, UniProt P51685 1-355); experiment: FACS, competition with AF647-human CCL1 on CHO-K1-human CCR8 cells
T3 construct: whole, on cells; also called hCCR8
Protocol: (§4) Antibodies were prepared with 3-fold serial dilution ranging from 200 nM to 0.01 nM in FACS buffer. Then, cells were washed by FACS buffer for three times after incubation. […] FlowJo software was used for analysis. Data was plotted as the logarithm of antibody concentration versus mean fluorescence signals. IC₅₀ values were determined in GraphPad Prism 8 (GraphPad Software) using a log(agonist) vs. response-Variable slope (4 parameters) curve fit.
T3 sequence (P51685 whole entry, the tested form may be a part): as above

human CCR8 [8] = target: T3, human CCR8; experiment: cell-based or functional assay
human CCR8 [9] = target: T3, human CCR8; experiment: FACS, competition with AF647-human CCL1 on HEK293-human CCR8 cells
Protocol: as §4

T1 sequence (G7NYJ2 entry or part of it): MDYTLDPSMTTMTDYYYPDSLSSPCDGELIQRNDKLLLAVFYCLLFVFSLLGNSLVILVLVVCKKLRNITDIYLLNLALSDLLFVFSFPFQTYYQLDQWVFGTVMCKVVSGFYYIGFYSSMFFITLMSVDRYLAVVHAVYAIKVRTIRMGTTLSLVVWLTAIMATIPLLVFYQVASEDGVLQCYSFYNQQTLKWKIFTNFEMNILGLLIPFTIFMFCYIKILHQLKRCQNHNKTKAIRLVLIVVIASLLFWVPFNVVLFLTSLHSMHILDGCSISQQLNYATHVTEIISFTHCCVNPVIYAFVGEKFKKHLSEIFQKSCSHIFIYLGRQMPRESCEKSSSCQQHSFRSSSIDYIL

Binding Ratio (GFP + MFI)/(GFP - MFI) (cynomolgus CCR8 [1]) | EC50 (human CCR8 [2]) | Max MFI (human CCR8 [2]) | Inhibition Rate (%) (human CCR8 [3]) | EC50 (human CCR8 [4]) | Max MFI (human CCR8 [4]) | Binding Ratio (GFP + MFI)/(GFP - MFI) (human CCR8 [5]) | EC50 (cynomolgus CCR8 [6]) | Max MFI (cynomolgus CCR8 [6]) | IC50 (human CCR8 [7]) | Max Inhibition (%) (human CCR8 [7]) | IC50, inhibition of CCL1 induced β-Arrestin recruitment (human CCR8 [8]) | Max Inhibition (%), CCL1 induced β-Arrestin recruitment (human CCR8 [8]) | IC50 (human CCR8 [9]) | Max Inhibition (%) (human CCR8 [9]) | Binder
91.4 | 2.25 nM | 24000 MFI | 84.8% | 1.5 nM | 10700 MFI | 345 | 0.397 nM | 5190 MFI |  |  |  |  |  |  | 191E12H8 (antibody, V domains shown, Murine hybridoma antibody) VH: DVQLQESGPGLVKPSQSLSLTCSVTGYSITSGYYWNWIRQFPGNKLEWMGYISYDGSNNYNPSLKNRISITRDISKNQFFLKLNSVTTEDTATYYCARQIGLRRGAMDYWGQGTSVTVSS VL: DIQMTQSSSYLSVSLGGRVTITCKASDHINTWLAWYQQKPGNAPRLLISGSTSLKAGVASRFSGSGSGKDYTLTITSLQTEDVATYYCQQYWGIPFTFGGGTKLEIK
133 | 0.334 nM | 10200 MFI | 94.7% | 0.142 nM | 3620 MFI | 145 | 0.163 nM | 3200 MFI |  |  |  |  |  |  | 204A2G12 (antibody, V domains shown, Murine hybridoma antibody) VH: DVQLQESGPGLVKPSQSLSLTCSVTGYSITSGYYWNWIRQFPGNKLEWMGYISYDGTNNYNPSLKNRISITRDTSKNQFFLKLTSVTTEDTATYYCARQVGLRRAWFAYWGQGTLVTVSA VL: DIQMTQSSSFLSVSLGGRVTITCKASDHINYWLAWYQQKPGNAPRLLISGATSLETGVPSRFSGSGSGKDYTLTITSLQNEDVATYYCHQYWSTPTFGSGTKLEIK
112 | 0.137 nM | 8490 MFI | 90.2% | 0.149 nM | 4680 MFI | 120 | 0.154 nM | 3500 MFI |  |  |  |  |  |  | 273H2G6 (antibody, V domains shown, Murine hybridoma antibody) VH: DVQLQESGPGLVKPSQSLSLTCSVTGYSITSGYYWNWIRQFPGNKLEWMGYISYDGSNNYNPSLKNRISITRDISKNQFFLKLNSVTTEDTATYYCARQVGLRRGAMDYWGQGTSVTVSS VL: DIQMTQSSSYLSVSLGGRVTITCKASDHINNWLAWYQQKPGNAPRLLISGSTSLKAGVASRFSGSGSGKDYTLSITSLQTEDVATYYCQQYWSIPYTFGGGTKLEIK
99.8 | 126 nM | 86400 MFI | 92.4% | 0.139 nM | 7210 MFI | 404 | 0.216 nM | 2940 MFI |  |  |  |  |  |  | 262C2G7 (antibody, V domains shown, Murine hybridoma antibody) VH: DVHLQESGPGLVKPSQSLSLTCSVTGYSITSGYYWNWIRQFPGNKLEWMGYISYDGSNNYNPSLKNRISITRDISKNQFFLKLNSVTTEDTATYYCARQIGLRRGAMDYWGQGTSVTVSS VL: DIQMTQSSSYLSVSLGGRVTITCKASDHINNWLAWYQQKPGNAPRLLISGSTSLKAGVASRFSGSGSGKDYTLTITSLQTEDVATYYCQQYWGIPFTFGGGTKLEIK
101 | 18.5 nM | 73900 MFI | 88.9% | 1.42 nM | 9840 MFI | 413 | 0.212 nM | 4140 MFI |  |  |  |  |  |  | 234G9C12 (antibody, V domains shown, Murine hybridoma antibody; also called 234G4C12) VH: DVQLQESGPGLVKPSQSLSLTCSVTGYSITSGYYWNWIRQFPGNKLEWMGYTSYDGSNNYNPSFKNRISITRDISKNQFFLKLNSVTTEDTATYYCARQIGLRRGAMDHWGQGTSVTVSS VL: DIQMTQSSSYLSVSLGGRVTITCKASDHINNWLAWYQQKPGNAPRLLISGSTSLRAGVASRFSGSGSGKDYTLTITSLQTEDVATYYCQQYWGIPFTFGGGTKLEIK
 |  |  |  |  |  |  |  |  | 0.728 nM | 98% | 1.04 nM | 41.3% | 0.891 nM | 100% | 160D1E3 (antibody, V domains shown, purified murine hybridoma antibody) VH: EVQLVESGGGLVQPKGSLKLSCAASGFTFNTYAMNWVRQAPGKGLEWVARIRSKSNYYATYYADSVKDRFTISRDDSQDMLYLQMNNLKTEDTAIYYCVRGRDYGSSYAMDYWGQGTSVTVSS VL: DIVMTQAAPSVPVTPGESVSISCRSSKSLLHSNGNTYLYWFLQRPGQSPQLLIYRMSNLASGVPDRFSGSGSGTAFTLRISRVEAEDVGVYYCMQHLEYPLTFGAGTKLELK
102 | 0.652 nM | 54900 MFI | 99.4% | 0.277 nM | 11900 MFI | 198 | 0.32 nM | 8290 MFI |  |  |  |  |  |  | 164G10D6 (antibody, V domains shown, Murine hybridoma antibody; also called 164G10C6) VH: EVQLVESGGGLVQPKGSLKLSCAASGFTFNTYAMNWVRQAPGKGLEWVARIRSKSNFYATYYADSVKDRFTISRDDSQDMLYLQMNILKTEDTAIYYCVRGRDYGSSYAMDYWGQGTSVTVSS VL: DIVMTQAAPSVPVTPGESVSISCRSSKSLLHSNGNTYLYWFLQRPGQSPQLLIYRMSNLASGVPDRFSGSGSGTAFTLRISRVEAEDVGVYYCMQHLEYPLTFGAGTKLELK
 |  |  |  |  |  |  |  |  | 0.661 nM | 98.2% | 6.57 nM | 33.8% | 0.836 nM | 96.2% | 153D4G2 (antibody, V domains shown, purified murine hybridoma antibody) VH: EVQLVESGGGLVQPKGSLKLSCAASGFTFNTYAMNWVRQAPGKGLEWVARIRSKSNFYATYYADSVKDRFTISRDDSQDMLYLQMNILKTEDTAIYYCVRGRDYGSSYAMDYWGQGTSVTVSS VL: DIVMTQAAPSVPVTPGESVSISCRSSKSLLHSNGNTYLYWFLQRPGQSPQLLIYRMSNLASGVPDRFSGSGSGTAFTLRISRVEAEDVGVYYCMQHLEYPLTFGAGTKLELK
127 | 0.64 nM | 51400 MFI | 99.1% | 0.24 nM | 11600 MFI | 215 | 0.699 nM | 10700 MFI |  |  |  |  |  |  | 153D4G2 (antibody, V domains shown, Murine hybridoma antibody; also called 153D3G2; 1531D4G2) VH: EVQLVESGGGLVQPKGSLKLSCAASGFTFNTYAMNWVRQAPGKGLEWVARIRSKSNFYATYYADSVKDRFTISRDDSQDMLYLQMNILKTEDTAIYYCVRGRDYGSSYAMDYWGQGTSVTVSS VL: DIVMTQAAPSVPVTPGESVSISCRSSKSLLHSNGNTYLYWFLQRPGQSPQLLIYRMSNLASGVPDRFSGSGSGTAFTLRISRVEAEDVGVYYCMQHLEYPLTFGAGTKLELK
74.2 | 0.397 nM | 51500 MFI | 100% | 0.111 nM | 11000 MFI | 169 |  | 7580 MFI |  |  |  |  |  |  | 348E2D11 (antibody, V domains shown, Murine hybridoma antibody) VH: QVQLVETGGGLVRPGNSLKLSCVTSGFSFSNYRMHWLRQPPGKRLEWIAVITVKSDNYGANYAESVKGRFTISRDDSKSSVYLQMNRLREEDTATYYCSSLGRVAYWGQGTLVTVSA VL: DIVMTQSQKFMFTSVGDRVSVTCKASQNVDTNVVWYQQKPGQSPKALIYSASSRYSGVPDRFTGSGSGTDFTLTISNVQSEDLAEYFCQQHNSFPLTFGAGTKLELI

From patent US20250034266A1 (ZAI LAB SHANGHAI, published 2025)
